Experimental data reported in publication PMC10533412, “Phosphoantigens glue butyrophilin 3A1 and 2A1 to activate Vγ9Vδ2 T cells” (Nature, 2023).

Legend:
[1] = biological target: VpBTN3 butyrophilin full intracellular domain (BFI) (alpaca (Vicugna pacos)); test: ITC; with DMAPP; details: domain or fragment
[2] = biological target: VpBTN3 butyrophilin full intracellular domain (BFI) (alpaca (Vicugna pacos)); test: ITC; with HMBPP; details: domain or fragment
[3] = biological target: VpBTN3 butyrophilin full intracellular domain (BFI) (alpaca (Vicugna pacos)); test: ITC; with IPP; details: domain or fragment
BTN2A1 B30.2 domain = BTN2A1 B30.2 domain (UniProt Q7KYR7); test: ITC; details: with HMBPP
HMBPP = test: ITC

BTN2A1 B30.2 domain, sequence (Q7KYR7 whole entry, looked up, tested part not stated): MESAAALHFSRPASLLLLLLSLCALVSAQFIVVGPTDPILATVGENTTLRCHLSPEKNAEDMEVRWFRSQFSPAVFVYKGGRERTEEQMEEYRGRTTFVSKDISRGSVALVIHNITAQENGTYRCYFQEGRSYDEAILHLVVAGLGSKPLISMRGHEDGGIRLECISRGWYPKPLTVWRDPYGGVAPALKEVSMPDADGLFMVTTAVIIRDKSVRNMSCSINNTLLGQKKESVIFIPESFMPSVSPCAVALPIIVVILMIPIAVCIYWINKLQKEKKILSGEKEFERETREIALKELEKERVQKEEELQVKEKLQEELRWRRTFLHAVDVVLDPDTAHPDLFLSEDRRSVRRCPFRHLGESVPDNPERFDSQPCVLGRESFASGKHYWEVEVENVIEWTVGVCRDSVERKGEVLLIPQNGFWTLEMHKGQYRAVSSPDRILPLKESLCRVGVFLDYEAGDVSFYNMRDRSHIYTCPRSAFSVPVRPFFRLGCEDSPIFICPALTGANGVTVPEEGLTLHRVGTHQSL

| Kd [1] [µM] | Kd [2] [µM] | Kd [3] [µM] | Kd (BTN2A1 B30.2 domain) [µM] | Kd (HMBPP) [µM] | Substance |
| --- | --- | --- | --- | --- | --- |
| 46.5 | 0.658 | 191 |  |  | VpBTN2 butyrophilin full intracellular domain (BFI) |
|  |  |  | 0.46 | 10.9 | BTN3A3 B30.2 R351H |
